Patent publication US11078259B2, “Methods and compositions for promoting thermogenic potential” (Joslin Diabetes Center, Inc., priority 2015, dated 2021)

System: hWAT-SVF and hBAT-SVF progenitors
Experiment: Glucose uptake, fatty acid uptake and oxidation in adipocytes from BMP7 pre-treated progenitors
Assay type: cell-based, human
Conditions: hWAT-SVF from both subjects and hBAT-SVF from Subject 2; 3.3 nM BMP7 pre-exposure 6 days
Experimental: FIG. 6B depicts OCR assayed using the Seahorse extracellular flux analyzer in differentiated hWA and hBA from Sub1 and Sub2 that were pre-treated with 3.3 nM BMP7 or vehicle (Veh) for 6 days and then differentiation into mature adipocytes. Equal numbers of progenitors were plated and differentiated. Quantification of OCR in the absence (Basal Res.) and presence of oligomycin (Proton Leak) or FCCP (Max. Res.) are shown. Data are presented as mean±s.e.m. (n=10; two-tailed Student's t-test; *P<0.05, **P<0.01, ***P<0.001). A representative experiment from a total of two independent studies is shown. Data are represented in the same order as appeared in the legend. […]
After serum starvation in DMEM/H medium containing 1% of BSA for 2-3 h, differentiated human white and brown adipocytes were washed with HEPES buffer. […] Glucose transport was determined by the addition of 2-deoxy-[^3H]glucose (0.1 mM, 0.5 μCi/mL; PerkinElmer Life and Analytical Science, Waltham, Mass.). […] Cells were then lysed in 0.1% SDS, and glucose uptake was assessed in 4 mL of scintillant using Beckman LS6500 scintillation counter (Beckman Coulter, Indianapolis Ind.). Nonspecific 2-deoxy-[^3H]glucose uptake was measured in the presence of cytochalasin B (20 μM) and was subtracted from the total uptake to get specific glucose uptake. Results were expressed as the mean±s.e.m. of the indicated number of experiments. […]

B1: BMP7: Recombinant human BMP7, an inducer of brown adipogenesis (protein, UniProt P18075 293-431, looked up)
Bone morphogenetic protein 7: STGSKQRSQNRSKTPKNQEALRMANVAENSSSDQRQACKKHELYVSFRDLGWQDWIIAPEGYAAYYCEGECAFPLNSYMNATNHAIVQTLVHFINPETVPKPCCAPTQLNAISVLYFDDSSNVILKKYRNMVVRACGCH
- fuel utilization in mature adipocytes: enhanced
